Laboratory results as given in patent US20240262899A1 (UNIVERSITY OF VIRGINIA PATENT FOUNDATION, published 2024).

Target: T1, histone H3 (H3) peptide, unmodified (UniProt P68431 2-31)
T1 construct: A synthetic peptide of histone H3, not the whole protein; also called unmodified H3
Test: western blot of peptides
Method: Four distinct peptides—histone H3 (H3), citrullinated histone H3 (CitH3; 4 Cit), acetylated histone H3 (AccH3), and methylated histone H3 (MetH3)—at a concentration of 0.5 microgram each, were run in duplicate through SDS-polyacrylamide gel electrophoresis and then transferred to a nitrocellulose membrane (FIG. 7A). This membrane was split into two sections for parallel probing with an equal quantity of Cayman CitH3-mAb (Ann Arbor, MI) or hCitH3-mAb (2 μg/ml) overnight. Post three extensive washes, the sections were incubated with HRP-conjugated secondary antibodies specific to mouse IgG and human IgG (Jackson ImmunoResearch Labs. Cat #309-035-008), respectively, for 2 hours. For concurrent signal development, both membrane sections were exposed simultaneously for the same duration.

B1: Y1128-VH3/VL3 (hCitH3-mAb) (antibody, V domains shown)
VH: EVQVVQSGAEVKKPGATVKISCKASGFNIKDYYMHWMKQRPEQGLEWIGWIDPENGNTIYDPKFQGRATITSDTSTDTAYLELSSLRSEDTAVYYCAPFGNYVWFAYWGQGTLVTVSS
VL: DVLMTQSPLSLPVTLGQPASISCRSSQSIVHSNGITYLEWYLQRPGQSPKLLIYKVSNRFSGVPDRFSGSGSGTDFTLKISRVEAEDVGLYYCFQGSHVPFTFGQGTKLEIKR
notes: Final lead humanized antibody; intact IgG, detected with anti-human IgG secondary; also called H3L3; humanized CitH3 monoclonal antibody
Question: Does B1 bind?
Answer: no binding (tested: 2 ug/ml antibody; 0.5 microgram peptide)
